Stoichiometry N data for 1 substance are collected here from paper PMC6547806.

This assay addresses Angiomotin (Amot80) coiled-coil homology (ACCH) domain, wild type. The assay can be described thus: SEC. Background: Size exclusion chromatography separates by hydrodynamic size, large species first.

In the case of “Angiomotin (Amot80) coiled-coil homology (ACCH) domain, wild type (domain or fragment)”, the stoichiometry N (as a rule, the number of molecules, sites or subunits per partner or assembly) was 4.
